{"source": "paper doi:10.1101/2019.12.17.880419", "assay_in_all_cases": "ITC", "key": {"[1]": {"biological_target": "T1, UHRF1 SRA (mouse, UniProt Q8VDF2 417-628)", "T1 sequence": "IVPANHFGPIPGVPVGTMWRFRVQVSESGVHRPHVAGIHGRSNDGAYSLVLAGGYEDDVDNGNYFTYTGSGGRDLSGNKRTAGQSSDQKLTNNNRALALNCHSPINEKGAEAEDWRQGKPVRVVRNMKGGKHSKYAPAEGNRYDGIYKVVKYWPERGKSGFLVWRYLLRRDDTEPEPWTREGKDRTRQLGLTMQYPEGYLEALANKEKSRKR"}, "[2]": {"biological_target": "T1, UHRF1 SRA", "remark": "listed apart in the source"}, "[3]": {"biological_target": "T1, UHRF1 SRA", "remark": "listed apart in the source"}, "[4]": {"biological_target": "T1, UHRF1 SRA", "remark": "listed apart in the source"}}, "note": "Where two headings read alike, the source gives them in different places.", "data": [{"binder": "fully-mCHG DNA (ITC) (dsDNA, 5mC on both strands in CHG context) DNA 1: TCACGCTGCGTGA DNA 2: TCACGCTGCGTGA", "values": [{"measurement": "Kd", "setting": "[1]", "value": "1.85 ± 0.06", "unit": "µM"}]}, {"binder": "mCH DNA (dsDNA, 5mC in CH context) DNA 1: TCATCAGTGAT DNA 2: TCACTGATGAC", "values": [{"measurement": "Kd", "setting": "[2]", "value": "1.16 ± 0.09", "unit": "µM"}]}, {"binder": "hemi-mCG DNA (dsDNA, 5mC on one strand in CG context) DNA 1: GCAATCCGGTAG DNA 2: CTACCGGATTGC", "values": [{"measurement": "Kd", "setting": "[3]", "value": "0.64 ± 0.12", "unit": "µM"}]}, {"binder": "fully-mCG DNA (dsDNA, 5mC on both strands in CG context) DNA 1: CAGCTCGAGCTG DNA 2: CAGCTCGAGCTG", "values": [{"measurement": "Kd", "setting": "[4]", "value": "4.13 ± 0.09", "unit": "µM"}]}]}
